Assay results: US20100136539A1

Columns and labels:
Ezrin (human) [1] = molecular target: Ezrin (human) (UniProt P15311); test: Vidas sandwich ELISA, 1/50 Caco2 lysate; negative control as capture, detection 4G11B5-biotin
Ezrin (human) [2] = molecular target: Ezrin (human) (UniProt P15311); test: Vidas sandwich ELISA, 1/50 Caco2 lysate; negative control as capture, detection 4A7A6C1-biotin

Chain of UniProt P15311 (P15311 whole entry): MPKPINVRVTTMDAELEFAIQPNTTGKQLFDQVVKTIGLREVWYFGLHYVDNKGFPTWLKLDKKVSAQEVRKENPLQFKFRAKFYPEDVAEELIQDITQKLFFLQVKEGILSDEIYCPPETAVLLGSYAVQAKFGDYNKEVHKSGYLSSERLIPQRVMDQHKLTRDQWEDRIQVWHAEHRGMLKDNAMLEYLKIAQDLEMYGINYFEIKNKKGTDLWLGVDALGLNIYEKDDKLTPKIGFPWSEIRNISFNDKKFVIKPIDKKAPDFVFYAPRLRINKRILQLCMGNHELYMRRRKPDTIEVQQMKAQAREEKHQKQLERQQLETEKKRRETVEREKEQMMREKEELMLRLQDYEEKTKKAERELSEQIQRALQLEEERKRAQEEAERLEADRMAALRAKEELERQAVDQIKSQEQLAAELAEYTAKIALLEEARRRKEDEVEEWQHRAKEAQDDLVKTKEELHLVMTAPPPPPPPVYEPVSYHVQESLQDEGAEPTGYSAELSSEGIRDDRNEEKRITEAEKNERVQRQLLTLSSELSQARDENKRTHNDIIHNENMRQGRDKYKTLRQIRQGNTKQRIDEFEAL

Vidas sandwich immunoassay signal (Ezrin (human) [1]): 2.5 RFV
Vidas sandwich immunoassay signal (Ezrin (human) [2]): 3 RFV
Substance: Negative control
